Test results as given in the Human Domainome abundance scans (Beltran et al. 2025).
± gives the uncertainty stated by the source.

B1: Chromodomain-helicase-DNA-binding protein 4, residues 444 to 496; numbered along this chain, Q14839 (parent)
chain: EDDHHMEFCRVCKDGGELLCCDTCPSSYHIHCLNPPLPEIPNGEWLCPRCTCP

Variants of: B1
Experiment: abundance fitness (aPCA) (normalised: wild type 0, dead -1); higher = more abundant; growth selection in yeast, the domain comes from the species named
Details: Homo sapiens

| Variant | abundance fitness |
| --- | --- |
| V11N | -0.104 ± 0.078 |
| V11P | -0.877 ± 0.07 |
| V11Q | -0.037 ± 0.043 |
| V11R | 0.012 ± 0.044 |
| V11S | -0.159 ± 0.049 |
| V11T | -0.019 ± 0.05 |
| V11W | -0.209 ± 0.071 |
| V11Y | -0.377 ± 0.073 |
| C12A | -0.74 ± 0.06 |
| C12D | -0.749 ± 0.1 |
| C12E | -0.124 ± 0.1 |
| C12F | -0.896 ± 0.084 |
| C12G | -0.53 ± 0.046 |
| C12H | -0.83 ± 0.074 |
| C12I | -0.73 ± 0.048 |
| C12K | -0.607 ± 0.07 |
| C12L | -1.11 ± 0.06 |
| C12M | -1.19 ± 0.074 |
| C12N | -0.663 ± 0.051 |
| C12P | -1.12 ± 0.052 |
| C12Q | -0.928 ± 0.092 |
| C12R | -0.931 ± 0.045 |
| C12S | -0.971 ± 0.058 |
| C12T | -0.769 ± 0.045 |

| Variant | abundance fitness |
| --- | --- |
| C12V | -0.7 ± 0.063 |
| C12W | -0.822 ± 0.051 |
| C12Y | -0.557 ± 0.089 |
| K13A | 0.085 ± 0.046 |
| K13C | -0.126 ± 0.054 |
| K13D | -0.243 ± 0.059 |
| K13E | 0.214 ± 0.061 |
| K13F | -0.267 ± 0.054 |
| K13G | -0.01 ± 0.057 |
| K13H | -0.286 ± 0.046 |
| K13L | -0.129 ± 0.042 |
| K13M | -0.2 ± 0.055 |
| K13N | -0.199 ± 0.045 |
| K13P | -1.08 ± 0.068 |
| K13Q | -0.024 ± 0.043 |
| K13R | -0.087 ± 0.041 |
| K13S | -0.101 ± 0.049 |
| K13T | -0.134 ± 0.041 |
| K13V | -0.303 ± 0.046 |
| K13W | -0.139 ± 0.054 |
| K13Y | -0.375 ± 0.065 |
| D14A | -0.068 ± 0.075 |
| D14E | 0.223 ± 0.076 |
| D14F | -0.34 ± 0.061 |

| Variant | abundance fitness |
| --- | --- |
| D14G | 0.152 ± 0.073 |
| D14H | -0.18 ± 0.059 |
| D14I | -0.196 ± 0.055 |
| D14K | 0.074 ± 0.063 |
| D14L | 0.023 ± 0.04 |
| D14M | -0.139 ± 0.054 |
| D14N | -0.205 ± 0.062 |
| D14P | -1.02 ± 0.094 |
| D14Q | 0.209 ± 0.047 |
| D14R | -0.057 ± 0.052 |
| D14S | 0.018 ± 0.047 |
| D14T | -0.1 ± 0.047 |
| D14V | -0.089 ± 0.053 |
| D14W | -0.418 ± 0.063 |
| D14Y | -0.412 ± 0.07 |
| G15C | -0.508 ± 0.082 |
| G15D | -0.274 ± 0.089 |
| G15E | 0.057 ± 0.058 |
| G15F | -0.263 ± 0.049 |
| G15I | -0.397 ± 0.081 |
| G15K | 0.08 ± 0.053 |
| G15L | -0.486 ± 0.064 |
| G15M | -0.102 ± 0.055 |
| G15N | -0.179 ± 0.055 |

| Variant | abundance fitness |
| --- | --- |
| G15P | -0.154 ± 0.05 |
| G15Q | -0.126 ± 0.06 |
| G15S | -0.061 ± 0.044 |
| G15T | 0.012 ± 0.057 |
| G15V | -0.115 ± 0.059 |
| G15W | -0.317 ± 0.095 |
| G15Y | -0.251 ± 0.076 |
| G16A | -0.558 ± 0.078 |
| G16C | -0.985 ± 0.19 |
| G16D | -0.275 ± 0.057 |
| G16E | 0.019 ± 0.087 |
| G16F | -0.556 ± 0.099 |
| G16H | -0.831 ± 0.055 |
| G16I | -0.74 ± 0.093 |
| G16K | -0.143 ± 0.054 |
| G16L | -0.7 ± 0.061 |
| G16M | -0.579 ± 0.089 |
| G16N | -0.186 ± 0.078 |
| G16P | -1.18 ± 0.084 |
| G16Q | -0.559 ± 0.059 |
| G16R | -0.424 ± 0.073 |
| G16S | -0.279 ± 0.053 |
| G16T | -0.432 ± 0.056 |
| G16V | -0.842 ± 0.1 |

| Variant | abundance fitness |
| --- | --- |
| G16W | -0.906 ± 0.12 |
| G16Y | -0.83 ± 0.11 |
| E17A | -0.309 ± 0.064 |
| E17C | -0.382 ± 0.12 |
| E17D | -0.232 ± 0.076 |
| E17F | -0.395 ± 0.064 |
| E17G | -0.289 ± 0.064 |
| E17H | -0.906 ± 0.064 |
| E17I | -0.206 ± 0.06 |
| E17K | 0.117 ± 0.066 |
| E17L | -0.535 ± 0.047 |
| E17M | -0.098 ± 0.06 |
| E17N | -0.077 ± 0.062 |
| E17P | -0.657 ± 0.06 |
| E17Q | -0.146 ± 0.066 |
| E17R | -0.123 ± 0.061 |
| E17S | -0.184 ± 0.053 |
| E17T | 0.015 ± 0.051 |
| E17V | -0.215 ± 0.071 |
| E17W | -0.576 ± 0.081 |
| E17Y | -0.644 ± 0.06 |
| L18A | -0.682 ± 0.09 |
| L18C | -0.761 ± 0.15 |
| L18D | -1.3 ± 0.39 |

| Variant | abundance fitness |
| --- | --- |
| L18E | -0.744 ± 0.1 |
| L18F | -0.581 ± 0.068 |
| L18G | -0.732 ± 0.093 |
| L18H | -0.66 ± 0.079 |
| L18I | -0.357 ± 0.068 |
| L18K | -0.517 ± 0.1 |
| L18M | 0.037 ± 0.051 |
| L18N | -0.489 ± 0.07 |
| L18P | -1.07 ± 0.072 |
| L18Q | -0.397 ± 0.071 |
| L18R | -0.394 ± 0.05 |
| L18S | -0.717 ± 0.061 |
| L18T | -0.373 ± 0.051 |
| L18V | -0.117 ± 0.052 |
| L18W | -0.738 ± 0.054 |
| L18Y | -0.751 ± 0.055 |
| L19A | 0.118 ± 0.048 |
| L19C | -0.075 ± 0.076 |
| L19D | -0.354 ± 0.089 |
| L19E | -0.632 ± 0.1 |
| L19F | -0.262 ± 0.073 |
| L19G | -0.488 ± 0.052 |
| L19H | -0.189 ± 0.055 |
| L19I | 0.1 ± 0.068 |

| Variant | abundance fitness |
| --- | --- |
| L19K | -0.033 ± 0.072 |
| L19M | 0.041 ± 0.066 |
| L19N | -0.116 ± 0.079 |
| L19P | -0.484 ± 0.063 |
| L19Q | -0.157 ± 0.065 |
| L19R | -0.314 ± 0.044 |
| L19S | -0.291 ± 0.046 |
| L19T | 0.037 ± 0.05 |
| L19V | -0.056 ± 0.059 |
| L19Y | -0.276 ± 0.066 |
| C20A | 0.099 ± 0.057 |
| C20D | 0.012 ± 0.082 |
| C20E | 0.136 ± 0.065 |
| C20F | -0.035 ± 0.06 |
| C20G | 0.083 ± 0.059 |
| C20H | 0.168 ± 0.065 |
| C20I | 0.103 ± 0.042 |
| C20K | 0.095 ± 0.078 |
| C20L | 0.012 ± 0.043 |
| C20M | 0.017 ± 0.064 |
| C20N | 0.14 ± 0.069 |
| C20P | 0.096 ± 0.057 |
| C20Q | 0.17 ± 0.065 |
